Positions count from the first letter of the chain named. In names and notes the source's numbering stands.
B1: R287A: X1HAS1 mutant, Arg287 replaced with Ala (protein, UniProt P13563 1-588, looked up, variant R287A)
Hyaluronan synthase 1: MKEKAAETMEIPEGIPKDLEPKHPTLWRIIYYSFGVVLLATITAAYVAEFQVLKHEAILFSLGLYGLAMLLHLMMQSLFAFLEIRRVNKSELPCSFKKTVALTIAGYQENPEYLIKCLESCKYVKYPKDKLKIILVIDGNTEDDAYMMEMFKDVFHGEDVGTYVWKGNYHTVKKPEETNKGSCPEVSKPLNEDEGINMVEELVRNKRCVCIMQQWGGKREVMYTAFQAIGTSVDYVQVCDSDTKLDELATVEMVKVLESNDMYGAVGGDVRILNPYDSFISFMSSLAYWMAFNVERACQSYFDCVSCISGPLGMYRNNILQVFLEAWYRQKFLGTYCTLGDDRHLTNRVLSMGYRTKYTHKSRAFSETPSLYLRWLNQQTRWTKSYFREWLYNAQWWHKHHIWMTYESVVSFIFPFFITATVIRLIYAGTIWNVVWLLLCIQIMSLFKSIYACWLRGNFIMLLMSLYSMLYMTGLLPSKYFALLTLNKTGWGTSGRKKIVGNYMPILPLSIWAAVLCGGVGYSIYMDCQNDWSTPEKQKEMYHLLYGCVGYVMYWVIMAVMYWVWVKRCCRKRSQTVTLVHDIPDMCV
B2: K448R: X1HAS1 mutant, Lys448 replaced with Arg (protein, UniProt P13563 1-588, looked up, variant K448R)
Hyaluronan synthase 1: B1 Hyaluronan synthase 1 with A287R, K448R
B3: H72A: X1HAS1 mutant, His72 replaced with Ala (protein, UniProt P13563 1-588, looked up, variant H72A)
Hyaluronan synthase 1: B1 Hyaluronan synthase 1 with H72A, A287R
B4: R296A: X1HAS1 mutant, Arg296 replaced with Ala (protein, UniProt P13563 1-588, looked up, variant R296A)
Hyaluronan synthase 1: B1 Hyaluronan synthase 1 with A287R, R296A
B5: K448A: X1HAS1 mutant, Lys448 replaced with Ala (protein, UniProt P13563 1-588, looked up, variant K448A)
Hyaluronan synthase 1: B1 Hyaluronan synthase 1 with A287R, K448A
B6: H72F: X1HAS1 mutant, His72 replaced with Phe (protein, UniProt P13563 1-588, looked up, variant H72F)
Hyaluronan synthase 1: B1 Hyaluronan synthase 1 with H72F, A287R

The molecules below were run on X1HAS1 (assay: Substrate turnover rate quantification (UDP release, enzyme-coupled assay)). Details: UDP release, normalized to WT.
Format: biochemical, Xenopus laevis
Procedure: UDP release during HA synthesis was quantified using an enzyme-coupled assay as previously described (10, 13). Depletion of NADH was monitored at 340 nm every 60 s for 3 hours at 37° C. in a SpectraMax instrument. The raw data was processed in MS Excel and a linear phase of each reaction was determined. The rate of NADH depletion was converted to pmoles of UDP released using a UDP standardized plot (FIG. S1C) for Michaelis-Menten constant determination using GraphPad Prism. For substrate turnover rate quantification of X1HAS1 mutants, pmoles of released UDP were converted to the number of corresponding substrate turnovers per molecule of X1HAS1, per minute. Data is presented relative to wild type activity. All experiments were performed in four to eight replicates and error bars represent standard deviation from the means.
HAS transfers the UDP-activated glycosyl unit (the donor sugar) to the non-reducing end of the nascent HA polymer (the acceptor sugar). This reaction generates UDP and elongated HA as reaction products (FIG. 1A). Catalytic activity can be assessed by monitoring the release of UDP in an enzyme-coupled reaction, as previously described (10, 13), or quantifying HA, either radiometrically or by dye staining following electrophoresis.

| Molecule | substrate turnover rate / catalytic rate relative to WT |
| --- | --- |
| B1 | about 15% |
| B2 | 50-75% |
| B3 | 50-75% |
| B4 | ~30% |
| B5 | 50-75% |
| B6 | about 10% |

These molecules were tested on X1HAS1 (assay: Electrophoretic HA size determination (agarose gel, Stains-all) of in vitro synthesized HA). Details: not given.
Format: biochemical, Xenopus laevis
Procedure: To assess the size of HA synthesized by X1HAS1, similar reaction conditions were applied to the ones described above. […] […] Controls were carried out by digesting the synthesized polymers with hyaluronidase. Synthesis reactions were mixed with SDS-PAGE loading dye and applied to a 1% agarose gel (Ultra-pure agarose, Invitrogen) casted in an Owl B2 system (ThermoFisher). […] After the run, the gel was equilibrated in 50% ethanol for 1.5 h and subjected to staining in 0.05% Stains-all (Sigma) in 50% ethanol overnight under light-protection. Post-staining background was reduced by soaking the gel in 20% ethanol for 3-7 days in the dark. The migration of the synthesized HA species was compared to HA standards from Streptococcus equi (Sigma), as well as enzymatically generated ladders: HA LoLadder and HA HiLadder (Hyalose).

| Molecule | HA product versus WT, short reaction |
| --- | --- |
| B2 | reduced length |
| B3 | reduced length |
| B5 | reduced length |
| B6 | reduced length |

Same assay, conditions: 8 h synthesis reaction

| Molecule | HA product versus WT, long reaction |
| --- | --- |
| B2 | equivalent to or exceeding the HA length obtained from the WT enzyme |
| B6 | equivalent to or exceeding the HA length obtained from the WT enzyme |

Same assay, conditions: from differences in electrophoretic mobility

| Molecule | HA size difference versus WT product |
| --- | --- |
| B2 | up to 0.5 MDa |

Same assay, conditions: short and long reactions (1 h or 8 h), not distinguished

| Molecule | HA product versus WT |
| --- | --- |
| B1 | short HA oligosaccharide species |
| B4 | short HA oligosaccharide species |

Reference: patent US20260286413A1, “HYALURONAN SYNTHESIS, SECRETION AND LENGTH CONTROL” (UNIVERSITY OF VIRGINIA, priority 2023, published 2026)
